B1: NADP-ME1.1 (Glycine max) (protein)
chain: SMTPSSSSSSRSGDRNGSVVMETPLKELKKESTVADVDDNAISAGGPQDVYGEDRATEDHFVTPWSVSVASGYTLLRDPHFNKGLAFTEDERDAHYLRGLLPPSVIPQETQVKKMIQHVRQYQVPLQKYMAMMDLQERNERLFYKLLIDHVEELLPVVYTPTVGEACQKYGSIFMHPQGLYISLKEKGKIREVLRNWPEKNIQVIVVTDGERILGLGDLGCQGMGIPVGKLSLYTALGGVRPSACLPITIDVGTNNEKLLNDELYIGLKQRRATGQEYAELMHEFMTAVKQTYGEKVLIQFEDFANHNAFNLLEKYRSTHLVFNDDIQGTASVVLAGLVASLKLVGGNLADHRFLFLGAGEAGTGIAELIALETSKQTNAPLEEVRKNIWLVDSKGLIVSSRKDSLQHFKKPWAHEHEPVKNLLDAVNKIKPTVLIGTSGQGRTFTKEVIEAMASINKRPIILSLSNPTSQSECTAEEAYKWSQGRAIFASGSPFPPVEYEGKVFVPGQANNAYIFPGFGLGLIMSGTIRVHDDLLLAASEALAAQVSQENFDKGLIYPPFTNIRKISAHIAANVAAKAYELGLATRLPQPKDLVKFAESCMYTPAYRSYR
B2: NAD-ME1 + NAD-ME2.3 (Glycine max) (protein)
chain 1: PSIVHKRSLDILHDPWFNKGTAFSMTERDRLDLRGLLPPNVMSPDLQIERFMVDLKRLEVQARDGPSDPNALAKWRILNRLHDRNETMYYKVLIAKIEEYAPIVYTPTVGLVCQNYSGLFRRPRGMYFSAEDRGEMMSMVYNWPAEQVDMIVVTDGSRILGLGDLGVQGIGIAIGKLDLYVAAAGINPQRVLPVMIDVGTNNEKLLEDPLYLGLQQHRLDGDDYLAVVDEFMEAVFTRWPNVIVQFEDFQSKWAFKLLQRYRNTYRMFNDDVQGTAGVAIAGLLGAVRAQGRPLIDFPKQKIVVAGAGSAGIGVLNAARKTMARMLGNNEVAFESAKSQFWVVDAQGLITEGRENIDPDALPFARNLKEMDRQGLREGASLVEVVKQVKPDVLLGLSAVGGLFSKEVLEALKGSTSTRPAIFAMSNPTKNAECTAEEAFSILGDNIIFASGSPFSNVDLGNGHIGHCNQGNNMYLFPGIGLGTLLSGARIVSDGMLQAAAERLATYMSEEEVLKGIIFPSTSRIRDITKQVATAVIKEAVEEDLAEGYHGMDARELQKLSEDEIAEYVQNNMWSPEYPTLVYKKE
chain 2: CIVHKRGADILHDPWFNKDTGFPLTERDRLGLRGLLPPRVISFEQQYDRFMNSFRSLENNTQGQPDKVVSLAKWRILNRLHDRNETLYYRVLIDNIKEFAPIIYTPTVGLVCQNYSGLFRRPRGMYFSAKDKGEMMSMIYNWPAHEVDMIVLTDGSRILGLGDLGVQGIGIPIGKLDVYVAAAGINPQRILPVMLDVGTNNQKLLEDRLYLGLRQPRLEGEEYLSIVDEFMEAVHARWPKAIVQFEDFQMKWAFETLKRYQKRFCMFNDDIQGTAGVALAGILGTVRAQGRPLTDFVNQKIVVVGAGSAGLGVLKMAIQTVAKISGCSELAAKSQFYLIDKDGLVTTERNSLDPAAAPFAKNPRDIEGLTEGASIIEVVKKIRPHVLLGLSGVGGIFNEEVLKAMRESVSTKPAIFAMSNPTMNAECTSIDAFKHAGENIVFASGSPFENVDLGNGKVGHVNQANNMYLFPGIGLGTLLSGAHLITDGMLQAASECLASYMAEEDILKGILYPSVDSIRDVTAEVGAAVLRAAVEEELAEGHGDVGPKELSHMSKDEAVEYVRSNMWYPVYSPLVHEK
B3: NAD-ME1 + NAD-ME2.4 (Glycine max) (protein)
chain 1: B2 chain 1
chain 2: CIVHKRGADILHDPWFNKDTGFPLTERDRLGLRGLLPPRVISFEQQYDRFMNSFRSLENNTQGQPDKVVSLAKWRILNRLHDRNETLYYRVLIDNIKEFAPIIYTPTVGLVCQNYSGLFRRPRGMYFSAKDKGEMMSMIYNWPAHEVDMIVLTDGSRILGLGDLGVQGIGIPIGKLDVYVAAAGINPQRILPVMLDVGTNNQKLLEDRLYLGLRQPRLEGEEYLSIIDEFMEAVHARWPKAIVQFEDFQMKWAFETLKRYQKKFCMFNDDIQGTAGVALAGLLGTVRAQGRPLTDFVNQKIVVVGAGSAGLGVLKMAIQAVAKISGCSELAAKSQFYLIDKDGLVTTERNNLDPAAAPFAKNPRDIEGLTEGASIIEVVKKIRPHVLLGLSGVGGIFNEEVLKAMRESVSTKPAIFAMSNPTMNAECTAIDAFKHAGENMVFASGSPFENVDLGNGIVGHVNQANNMYLFPGIGLGTLLSGAHLITDGMLQAAAECLASYMAEEDILKGILYPSVDSIRDVTAEVGAAVLRAAVEEELAEGNGDVGPKELSHMSKDETVEYVRSNMWYPVYSPLVHEK

Experiments:
purified protein [1] = substrate: CC(=O)C(=O)O; test: purified protein; type: biochemical, Glycine max; settings: reverse reaction, NaHCO3, NADPH, MgCl2, pH 6.5, 30°C
purified protein [2] = substrate: O=C(O)C[C@H](O)C(=O)O; test: purified protein; settings: equimolar mixture, forward, saturating NAD, MnCl2, pH 6.5, 30°C

Protein | K0.5 (purified protein [1]) [mM] | kcat (purified protein [1]) [s⁻¹] | K0.5 (purified protein [2]) [mM] | kcat (purified protein [2]) [s⁻¹]
B1 | 5.1 ± 0.5 | 202.4 ± 6.9 |  | 
B2 |  |  | 0.2 ± 0.1 | 338.3 ± 15.8
B3 |  |  | 0.6 ± 0.2 | 393.6 ± 63.8

— doi:10.1101/2025.03.18.644018v1
